Assay results published in patent US7326418B2, “Identification of novel factors that block programmed cell death or apoptosis by targeting JNK” (University of Chicago, priority 2001, dated 2008).

Target: T1, ASK1 (Homo sapiens, UniProt Q99683)
T1 sequence (Q99683 1-1374): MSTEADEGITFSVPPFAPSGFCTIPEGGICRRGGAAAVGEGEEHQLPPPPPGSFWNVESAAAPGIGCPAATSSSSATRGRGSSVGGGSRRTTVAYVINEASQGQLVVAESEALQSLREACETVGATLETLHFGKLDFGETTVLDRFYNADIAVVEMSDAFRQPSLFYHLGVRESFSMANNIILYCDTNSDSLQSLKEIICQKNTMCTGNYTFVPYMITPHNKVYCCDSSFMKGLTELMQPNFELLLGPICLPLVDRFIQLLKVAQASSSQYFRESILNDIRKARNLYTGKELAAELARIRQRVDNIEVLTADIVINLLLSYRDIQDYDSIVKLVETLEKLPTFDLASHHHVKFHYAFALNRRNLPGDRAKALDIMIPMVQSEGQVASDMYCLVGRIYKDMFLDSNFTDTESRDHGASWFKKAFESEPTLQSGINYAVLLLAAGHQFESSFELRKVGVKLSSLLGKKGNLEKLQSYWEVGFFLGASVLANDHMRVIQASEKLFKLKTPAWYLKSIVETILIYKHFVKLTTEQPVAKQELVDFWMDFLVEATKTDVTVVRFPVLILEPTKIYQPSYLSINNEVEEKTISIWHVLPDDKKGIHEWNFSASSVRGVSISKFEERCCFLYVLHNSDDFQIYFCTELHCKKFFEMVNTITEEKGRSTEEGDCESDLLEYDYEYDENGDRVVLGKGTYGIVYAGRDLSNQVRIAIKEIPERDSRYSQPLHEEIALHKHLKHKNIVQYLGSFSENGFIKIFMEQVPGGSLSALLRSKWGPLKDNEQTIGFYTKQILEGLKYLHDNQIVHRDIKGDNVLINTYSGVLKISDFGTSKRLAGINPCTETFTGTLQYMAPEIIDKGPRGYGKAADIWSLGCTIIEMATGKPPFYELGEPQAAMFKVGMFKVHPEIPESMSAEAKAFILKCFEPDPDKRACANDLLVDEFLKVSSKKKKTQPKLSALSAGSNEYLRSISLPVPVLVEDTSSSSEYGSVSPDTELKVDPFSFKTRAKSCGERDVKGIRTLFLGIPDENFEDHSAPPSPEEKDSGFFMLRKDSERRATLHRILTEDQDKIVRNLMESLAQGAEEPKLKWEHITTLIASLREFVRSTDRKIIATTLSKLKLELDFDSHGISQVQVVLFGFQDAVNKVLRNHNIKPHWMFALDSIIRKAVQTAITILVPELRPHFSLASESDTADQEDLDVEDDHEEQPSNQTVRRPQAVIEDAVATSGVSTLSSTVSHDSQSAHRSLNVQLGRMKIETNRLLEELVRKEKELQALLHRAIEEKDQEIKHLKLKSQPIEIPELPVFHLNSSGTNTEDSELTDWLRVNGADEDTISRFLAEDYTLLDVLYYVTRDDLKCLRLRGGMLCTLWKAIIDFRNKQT
Assay: GST pull-down, GST-Gadd45β beads with in vitro translated 35S-labeled ASK1
Format: binding
Set-up: plasmids encoding full-length (FL) human ASK1, MEKK4, JNKK1, and JNKK2; made in house; host or cells: TNT coupled reticulocyte lysate (Promega), in vitro transcription/translation from pBS
Protocol: To confirm the above interactions, in vitro, GST pull-down experiments were performed. pBluescript (pBS) plasmids encoding full-length (FL) human ASK1, MEKK4, JNKK1, and JNKK2, or polypeptides derived from the amino- or carboxy-terminal portions of ASK1 (i.e. N-ASK1, spanning from amino acids 1 to 756, and C-ASK1, spanning from amino acids 648 to 1375) were transcribed and translated in vitro using the TNT coupled retyculocyte lysate system (Promega) in the presence of ^35S-methionine. 5 μl of each translation mix were incubated, in vitro, with sepharose-4B beads that had been coated with either purified glutathione-S-transferase (GST) polypeptides or GST-Gadd45β proteins. The latter proteins contained FL murine Gadd45β directly fused to GST. Binding assays were performed according to standard procedures, and ^35S-labeled proteins that bound to beads, as well as 2 μl of each in vitro translation mix (input), were then resolved by SDS polyacrylamide gel electrophoresis. Asterisks indicate the intact translated products. […] Thus, GST pull-down experiments confirmed the strong interaction between Gadd45β and JNKK2 observed in vivo, as well as the weaker interactions of Gadd45β with other kinases in the JNK pathway. These assays also uncovered a weak association between Gadd45β and JNKK1. […]

B1: GST-Gadd45β: full-length murine Gadd45β directly fused to GST, purified from E. coli (protein)
chain: MTLEELVASDNAVQKMQAVTAAVEQLLVAAQRQDRLTVGVYEAAKLMNVDPDSVVLCLLAIDEEEEDDIALQIHFTLIQSFCCDNDIDIVRVSGMQRLAQLLGEPAETLGTTEARDLHCLLVTNCHTDSWKSQGLVEVASYCEESRGNNQWVPYISLEER
modifications: left off: a dimerising Fc or GST
notes: full-length murine Gadd45β directly fused to GST, purified from E. coli
association with ASK1: less avidly than with JNKK2
